Legend:
[1] = target: wild-type 6xHis-tagged p16 expressed in HEK293 cells (human) (UniProt P42771); assay: cross-linking; HEK293 cells transiently expressing p16-His variants, 200 µM H2O2 in media for the times indicated, stopped with 10 µg/mL catalase and 50 mM NEM; non-reducing SDS-PAGE and western blot for p16
[2] = target: endogenous p16 of Ishikawa cells (human (endogenous in Ishikawa cells)) (UniProt P42771); assay: cross-linking; lysates of cancer cell lines without added oxidant, SDS lysis buffer, non-reducing SDS-PAGE and western blot for p16
[3] = target: the molecule itself; assay: cross-linking; intermolecular disulfide formed by oxidant (20 µM p16, 200 µM diamide, or H2O2 with or without 25 mM bicarbonate), 4 mM HEPES pH 7.4, room temperature; free cysteines blocked with 10 mM NEM; non-reducing SDS-PAGE
[4] = target: the molecule itself; assay: Thioflavin-T fluorescence (amyloid formation); 20 µM p16 (series 5-60 µM), 10 µM ThT, oxidant (200 µM diamide, or H2O2 with or without bicarbonate) added at the start, 4 mM HEPES pH 7.4, 25 °C, quiescent

**Q.** Which stoichiometry N [1] does the source give for “wild-type 6xHis-tagged p16 expressed in HEK293 cells (from UniProt P42771 1-156) (natural protein)” here?
**A.** 2

**Q.** With “endogenous p16 of Ishikawa cells (from UniProt P42771 1-156) (natural protein)” as the molecule, how does the stoichiometry N [2] read?
**A.** 2

B1: p16^INK4a, wild type (recombinant) (natural protein, human)
chain: GAMEPAAGSSMEPSADWLATAAARGRVEEVRALLEAGALPNAPNSYGRRPIQVMMMGSARVAELLLLHGAEPNCADPATLTRPVHDAAREGFLDTLVVLHRAGARLDVRDAWGRLPVDLAEELGHRDVARYLRAAAGGTRGSNHARIDAAEGPSDIPD
notes: p16INK4a, UniProt P42771; Self-association needs oxidation of Cys72 (diamide or H2O2): intermolecular disulfide dimer, then oligomers and amyloid fibrils; Constructs obtained from Genscript; also called wild-type p16; monomeric p16; source: E. coli BL21(DE3), purified (Ni-NTA, SEC, TEV cleavage, second Ni-NTA, desalting); not shown: His6, N-terminal, cleaved; protein A tag, N-terminal, cleaved
**Q.** Which “stoichiometry N” value [3] does the source give for B1 here?
**A.** 2

B2: p16^INK4a A127S (recombinant) (natural protein, human)
chain: GAMEPAAGSSMEPSADWLATAAARGRVEEVRALLEAGALPNAPNSYGRRPIQVMMMGSARVAELLLLHGAEPNCADPATLTRPVHDAAREGFLDTLVVLHRAGARLDVRDAWGRLPVDLAEELGHRDVSRYLRAAAGGTRGSNHARIDAAEGPSDIPD
notes: p16INK4a, UniProt P42771; previously reported cancer mutation; source: E. coli BL21(DE3), purified (Ni-NTA, SEC, TEV cleavage, second Ni-NTA, desalting); not shown: His6, N-terminal, cleaved; protein A tag, N-terminal, cleaved
**Q.** Does B2 bind [4]?
**A.** binds

B3: p16^INK4a L37S (recombinant, stabilizing mutation) (natural protein, human)
chain: GAMEPAAGSSMEPSADWLATAAARGRVEEVRALLEAGASPNAPNSYGRRPIQVMMMGSARVAELLLLHGAEPNCADPATLTRPVHDAAREGFLDTLVVLHRAGARLDVRDAWGRLPVDLAEELGHRDVARYLRAAAGGTRGSNHARIDAAEGPSDIPD
notes: p16INK4a, UniProt P42771; source: E. coli BL21(DE3), purified (Ni-NTA, SEC, TEV cleavage, second Ni-NTA, desalting); not shown: His6, N-terminal, cleaved; protein A tag, N-terminal, cleaved
**Q.** Does B3 bind [4]?
**A.** binds

B4: p16^INK4a A20S (recombinant) (natural protein, human)
chain: GAMEPAAGSSMEPSADWLATASARGRVEEVRALLEAGALPNAPNSYGRRPIQVMMMGSARVAELLLLHGAEPNCADPATLTRPVHDAAREGFLDTLVVLHRAGARLDVRDAWGRLPVDLAEELGHRDVARYLRAAAGGTRGSNHARIDAAEGPSDIPD
notes: as for B2
**Q.** Does B4 bind [4]?
**A.** binds

B5: p16^INK4a D84N (recombinant) (natural protein, human)
chain: GAMEPAAGSSMEPSADWLATAAARGRVEEVRALLEAGALPNAPNSYGRRPIQVMMMGSARVAELLLLHGAEPNCADPATLTRPVHNAAREGFLDTLVVLHRAGARLDVRDAWGRLPVDLAEELGHRDVARYLRAAAGGTRGSNHARIDAAEGPSDIPD
notes: as for B2
**Q.** Does B5 bind [4]?
**A.** binds

B6: p16^INK4a V95A (recombinant) (natural protein, human)
chain: GAMEPAAGSSMEPSADWLATAAARGRVEEVRALLEAGALPNAPNSYGRRPIQVMMMGSARVAELLLLHGAEPNCADPATLTRPVHDAAREGFLDTLAVLHRAGARLDVRDAWGRLPVDLAEELGHRDVARYLRAAAGGTRGSNHARIDAAEGPSDIPD
notes: as for B2
**Q.** Does B6 bind [4]?
**A.** binds

B7: p16^INK4a G122S (recombinant) (natural protein, human)
chain: GAMEPAAGSSMEPSADWLATAAARGRVEEVRALLEAGALPNAPNSYGRRPIQVMMMGSARVAELLLLHGAEPNCADPATLTRPVHDAAREGFLDTLVVLHRAGARLDVRDAWGRLPVDLAEELSHRDVARYLRAAAGGTRGSNHARIDAAEGPSDIPD
notes: as for B2
**Q.** Does B7 bind [4]?
**A.** binds

Source: article PMC11217399, “Amyloid formation and depolymerization of tumor suppressor p16^INK4a are regulated by a thiol-dependent redox mechanism” (Nature Communications, 2024)
